Measurements taken from the RNAGym collection of RNA variant scans (doi:10.1073/pnas.2313332121).

B1: TPR t1 (parent)
chain: GACCAAUCUGCCCUCAGAGCUCGAGAACAUCUUCGGAUGCAGAGGAGGCAGGCUUCGGUGGCGCGAUAGCGCCAACGUCCUCAACCUCCAAUGCAUCCCACCACAUGAUGAUGCCUGAAGAGCCUUGGUUUUUUG

Variants of: B1
Assay: polymerase ribozyme fitness, log enrichment relative to wild type (log ratio); higher = more active; in vitro selection for triplet polymerase activity
Outline: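 Libraries of mutants in each subunit of a heterodimeric triplet polymerase ribozyme were generated by PCR and transcribed. In triplicate, each went through one in vitro selection round: annealing with biotinylated primer, partner subunit and triplets; frozen incubation at −7 °C; gel excision of extended constructs; streptavidin-bead capture; RT-PCR. Fitness, taken from Illumina sequencing of input and output libraries, is the logarithm of a genotype's enrichment over wild-type enrichment, averaged across replicates with inverse-variance weights. The logarithm is base 2, and genotypes needed ≥10 input reads and ≥1 read per output to be kept.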

Row | Variant | polymerase ribozyme fitness (log ratio)
1 | C20U C22A G23U G44U G63A C88G A103C U109A | -6.38
2 | C20U G63U G93A C114G | -2.6
3 | U21A C76U A91C | -2.35
4 | C20U U32C U106A | -2.46
5 | G19U G120U | -2.46
6 | G19U G71A A118G | -6.34
7 | C20A G42C G48U G122U | -4.09
8 | U21A C49G C62A G113C | -4.99
9 | C20A C70U | -3.19
10 | G19U C70U U78C C88U | -3.57
11 | U21A C123G G128C | -1.09
12 | C20A G63U C85G | -5.08
13 | C20U U96G | -1.9
14 | C20A G63A | -3.49
15 | C20G G52A A111U | -3.23
16 | G19C C70U U112A G120A U130C | -2.23
17 | C20U C22A G23U G44U G63U A66C C88G A103C U109A | -6.53
18 | C20G C62U G113C | -1.25
19 | A18U G57U C88U C101G | -6.08
20 | C20G C56U A84G A111C C115G A121C U132A | -3.92
21 | A18U G36U G48U G69U G120U G122U | -1.69

Row | Variant | polymerase ribozyme fitness (log ratio)
22 | A18U G39U C104U U112A | -1.88
23 | C20U G52A C124U | 0.255
24 | C20U G61U | -1.41
25 | G19A C20G U106C G117A | -6.46
26 | C20A C49G G93A | -3.77
27 | G19C C62A U96A C124A G128C | -5.42
28 | U21A G42C | -1.94
29 | C20A A95G U112A G120U | -1.91
30 | C20A G60A G113C | -5.06
31 | U21A A66U U112G | -0.949
32 | C20U C31G A66U C73U C98A G110A | -6.9
33 | C20A G69A | -5.6
34 | C20A G69U | -1.94
35 | G19U C49U C53U G60U C123U | -5.84
36 | G19U U55G C70U U87G A95C U112C C114A | -0.702
37 | A18U G44A U54A U59A C86U U106A | -4.83
38 | C20U C124G | 0.389
39 | C20A G77U G120C | -1.96
40 | G19U A43U G122A C124A | -2.23
41 | C20U G42A | -2.49
42 | A18U G61A C70U C115A | -5.05

Row | Variant | polymerase ribozyme fitness (log ratio)
43 | U21C G23A G44C G48A A90U C97G C101U C102U C114A | -7.25
44 | C20A A74U | -3.01
45 | C20G C53A G57U A91C A95G U109G | -3.11
46 | C20A A50U U126C | -4.92
47 | C20G A50C | -6.14
48 | U21A C22G A27U C56U C114U | -3.34
49 | G19U G61A C82G C124A | -2.1
50 | C20G A50C C80U G93A G120C U125G | -6.66
51 | C20A G36U | -2.98
52 | U21A A27C | -3.89
53 | U21C C56A G58A G113C U132A | -2.29
54 | G19C A41U C64G C98A U109A | -6.43
55 | C20A G110A | -4.21
56 | U21A C72A U125G | -0.653
57 | C20A G45U | -4.09
58 | G19A A29G | -3.47
59 | C20U A95G C104A U109C C114U C124A | -3.03
60 | G19U G122U C123A U129A | -4.23
61 | C20U U38A A50U G71A | -4.89
62 | C20A C76U C82G U96G | -4.53
63 | C20G G113A | -2.69

Row | Variant | polymerase ribozyme fitness (log ratio)
64 | C20G G113C | -1.32
65 | C20U G57A G63A C115A | -3.54
66 | C20U G60A | -1.03
67 | C20U G60U | -1.52
68 | C20G G36U U92C C101A U106A U109A | -3.02
69 | G19A C20U | -1.54
70 | C20U A37U C72G C101A | -2.76
71 | C20G G48A G60U U96A A105U G110U A118U | -6.72
72 | U21A U81A C101A G113C | -4.64
73 | G19U A29G | -4.96
74 | C20A G45C G57C C73G U106C U130G | -4.17
75 | G19C A24G A26U C34U A43C G61U C123G | -7.57
76 | C20A G113C | -4.5
77 | C20A A91C | -3.55
78 | G19C C22U A46C G61U | -5.14
79 | U21C A50U C70U C99U A111U | -7.45
80 | C20A G42U | -4
81 | U21A G60A U96C U116G | -1.53
82 | C20G A118U | -3.53
83 | C20A C56U | -2.54
84 | C20A C56A | -2.5
